Assay results published in patent US20220112270.

What was measured:
[1] = target: another recombinant AAT (R&D systems) (UniProt P01009)
[2] = target: plasma-derived human alpha 1-antitrypsin (AAT) (UniProt P01009)
[3] = test system: recombinant human alpha 1-antitrypsin (AAT) derived from recombinant CHO cells
[4] = test system: mouse AAT in mouse plasma

trypsin
trypsin activity (fluorogenic peptide substrate) [1]: drastically reduced trypsin activity in a similar manner as ... another recombinant AAT (R&D systems)
trypsin activity (fluorogenic peptide substrate) [2]: drastically reduced trypsin activity in a similar manner as a plasma-derived AAT (Prolastin)
trypsin activity (fluorogenic peptide substrate) [3]: At a concentration of 5 ng/ml, the recombinant AAT described and obtained by the methods presented herein (ExcellGene) drastically reduced trypsin activity
trypsin activity (fluorogenic peptide substrate) [4]: drastically reduced trypsin activity in a similar manner as ... mouse plasma diluted from a sample that contained about 1.2 g/L mouse AAT
